Target: T1, Ep-CAM (UniProt P16422 24-265, limits assumed)
T1 construct: Amine coupled to a CM5 chip in the Biacore assays
T1 sequence (looked up): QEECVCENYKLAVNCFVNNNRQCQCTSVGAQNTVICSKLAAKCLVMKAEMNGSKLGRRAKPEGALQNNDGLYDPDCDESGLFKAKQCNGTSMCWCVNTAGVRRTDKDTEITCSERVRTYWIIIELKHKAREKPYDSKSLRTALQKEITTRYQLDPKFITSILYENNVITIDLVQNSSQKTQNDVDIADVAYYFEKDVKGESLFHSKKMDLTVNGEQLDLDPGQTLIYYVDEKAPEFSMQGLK
Test: Biacore, Fab periplasmic extract

Binder	binding result	fold difference in affinity vs parental ING-1
ING-1 light chain L29Y (Fab, V domains shown, Fab, periplasmic extract) VH: QIQLVQSGPELKKPGETVKISCKASGYTFTKYGMNWVKQAPGKGLKWMGWINTYTEEPTYGDDFKGRFAFSLETSASTANLQINNLKSEDTATYFCARFGSAVDYWGQGTSVTVSS VL: DIVMTQAAFSNPVTLGTSGSISCRSSKSYLHSNGITYLYWYLQKPGQSPQLLIYQMSNLASGVPDRFSSSGSGTDFTLRISRVEAEDVGVYYCAQNLELPRTFGGGTKLEMKR	no binding	–
ING-1 light chain L30E (Fab, V domains shown, Fab, periplasmic extract) VH: QIQLVQSGPELKKPGETVKISCKASGYTFTKYGMNWVKQAPGKGLKWMGWINTYTEEPTYGDDFKGRFAFSLETSASTANLQINNLKSEDTATYFCARFGSAVDYWGQGTSVTVSS VL: DIVMTQAAFSNPVTLGTSGSISCRSSKSLEHSNGITYLYWYLQKPGQSPQLLIYQMSNLASGVPDRFSSSGSGTDFTLRISRVEAEDVGVYYCAQNLELPRTFGGGTKLEMKR	no binding	–
ING-1 light chain L30K (Fab, V domains shown, Fab, periplasmic extract) VH: QIQLVQSGPELKKPGETVKISCKASGYTFTKYGMNWVKQAPGKGLKWMGWINTYTEEPTYGDDFKGRFAFSLETSASTANLQINNLKSEDTATYFCARFGSAVDYWGQGTSVTVSS VL: DIVMTQAAFSNPVTLGTSGSISCRSSKSLKHSNGITYLYWYLQKPGQSPQLLIYQMSNLASGVPDRFSSSGSGTDFTLRISRVEAEDVGVYYCAQNLELPRTFGGGTKLEMKR	no binding	–
ING-1 light chain L30R (Fab, V domains shown, Fab, periplasmic extract) VH: QIQLVQSGPELKKPGETVKISCKASGYTFTKYGMNWVKQAPGKGLKWMGWINTYTEEPTYGDDFKGRFAFSLETSASTANLQINNLKSEDTATYFCARFGSAVDYWGQGTSVTVSS VL: DIVMTQAAFSNPVTLGTSGSISCRSSKSLRHSNGITYLYWYLQKPGQSPQLLIYQMSNLASGVPDRFSSSGSGTDFTLRISRVEAEDVGVYYCAQNLELPRTFGGGTKLEMKR	no binding	–
ING-1 light chain L30W (Fab, V domains shown, Fab, periplasmic extract) VH: QIQLVQSGPELKKPGETVKISCKASGYTFTKYGMNWVKQAPGKGLKWMGWINTYTEEPTYGDDFKGRFAFSLETSASTANLQINNLKSEDTATYFCARFGSAVDYWGQGTSVTVSS VL: DIVMTQAAFSNPVTLGTSGSISCRSSKSLWHSNGITYLYWYLQKPGQSPQLLIYQMSNLASGVPDRFSSSGSGTDFTLRISRVEAEDVGVYYCAQNLELPRTFGGGTKLEMKR	no binding	–
ING-1 light chain L97D (Fab, V domains shown, Fab, periplasmic extract) VH: QIQLVQSGPELKKPGETVKISCKASGYTFTKYGMNWVKQAPGKGLKWMGWINTYTEEPTYGDDFKGRFAFSLETSASTANLQINNLKSEDTATYFCARFGSAVDYWGQGTSVTVSS VL: DIVMTQAAFSNPVTLGTSGSISCRSSKSLLHSNGITYLYWYLQKPGQSPQLLIYQMSNLASGVPDRFSSSGSGTDFTLRISRVEAEDVGVYYCAQNDELPRTFGGGTKLEMKR	no binding	–
ING-1 light chain L97R (Fab, V domains shown, Fab, periplasmic extract) VH: QIQLVQSGPELKKPGETVKISCKASGYTFTKYGMNWVKQAPGKGLKWMGWINTYTEEPTYGDDFKGRFAFSLETSASTANLQINNLKSEDTATYFCARFGSAVDYWGQGTSVTVSS VL: DIVMTQAAFSNPVTLGTSGSISCRSSKSLLHSNGITYLYWYLQKPGQSPQLLIYQMSNLASGVPDRFSSSGSGTDFTLRISRVEAEDVGVYYCAQNRELPRTFGGGTKLEMKR	no binding	–
ING-1 light chain L99D (Fab, V domains shown, Fab, periplasmic extract) VH: QIQLVQSGPELKKPGETVKISCKASGYTFTKYGMNWVKQAPGKGLKWMGWINTYTEEPTYGDDFKGRFAFSLETSASTANLQINNLKSEDTATYFCARFGSAVDYWGQGTSVTVSS VL: DIVMTQAAFSNPVTLGTSGSISCRSSKSLLHSNGITYLYWYLQKPGQSPQLLIYQMSNLASGVPDRFSSSGSGTDFTLRISRVEAEDVGVYYCAQNLEDPRTFGGGTKLEMKR	–	0.02 fold
ING-1 light chain L99E (Fab, V domains shown, Fab, periplasmic extract) VH: QIQLVQSGPELKKPGETVKISCKASGYTFTKYGMNWVKQAPGKGLKWMGWINTYTEEPTYGDDFKGRFAFSLETSASTANLQINNLKSEDTATYFCARFGSAVDYWGQGTSVTVSS VL: DIVMTQAAFSNPVTLGTSGSISCRSSKSLLHSNGITYLYWYLQKPGQSPQLLIYQMSNLASGVPDRFSSSGSGTDFTLRISRVEAEDVGVYYCAQNLEEPRTFGGGTKLEMKR	–	0.01 fold
ING-1 light chain L99H (Fab, V domains shown, Fab, periplasmic extract) VH: QIQLVQSGPELKKPGETVKISCKASGYTFTKYGMNWVKQAPGKGLKWMGWINTYTEEPTYGDDFKGRFAFSLETSASTANLQINNLKSEDTATYFCARFGSAVDYWGQGTSVTVSS VL: DIVMTQAAFSNPVTLGTSGSISCRSSKSLLHSNGITYLYWYLQKPGQSPQLLIYQMSNLASGVPDRFSSSGSGTDFTLRISRVEAEDVGVYYCAQNLEHPRTFGGGTKLEMKR	–	0.05 fold
ING-1 light chain L99K (Fab, V domains shown, Fab, periplasmic extract) VH: QIQLVQSGPELKKPGETVKISCKASGYTFTKYGMNWVKQAPGKGLKWMGWINTYTEEPTYGDDFKGRFAFSLETSASTANLQINNLKSEDTATYFCARFGSAVDYWGQGTSVTVSS VL: DIVMTQAAFSNPVTLGTSGSISCRSSKSLLHSNGITYLYWYLQKPGQSPQLLIYQMSNLASGVPDRFSSSGSGTDFTLRISRVEAEDVGVYYCAQNLEKPRTFGGGTKLEMKR	–	0.02 fold
ING-1 light chain L99N (Fab, V domains shown, Fab, periplasmic extract) VH: QIQLVQSGPELKKPGETVKISCKASGYTFTKYGMNWVKQAPGKGLKWMGWINTYTEEPTYGDDFKGRFAFSLETSASTANLQINNLKSEDTATYFCARFGSAVDYWGQGTSVTVSS VL: DIVMTQAAFSNPVTLGTSGSISCRSSKSLLHSNGITYLYWYLQKPGQSPQLLIYQMSNLASGVPDRFSSSGSGTDFTLRISRVEAEDVGVYYCAQNLENPRTFGGGTKLEMKR	–	2 fold
ING-1 light chain L99Q (Fab, V domains shown, Fab, periplasmic extract) VH: QIQLVQSGPELKKPGETVKISCKASGYTFTKYGMNWVKQAPGKGLKWMGWINTYTEEPTYGDDFKGRFAFSLETSASTANLQINNLKSEDTATYFCARFGSAVDYWGQGTSVTVSS VL: DIVMTQAAFSNPVTLGTSGSISCRSSKSLLHSNGITYLYWYLQKPGQSPQLLIYQMSNLASGVPDRFSSSGSGTDFTLRISRVEAEDVGVYYCAQNLEQPRTFGGGTKLEMKR	–	0.02 fold
ING-1 light chain L99R (Fab, V domains shown, Fab, periplasmic extract) VH: QIQLVQSGPELKKPGETVKISCKASGYTFTKYGMNWVKQAPGKGLKWMGWINTYTEEPTYGDDFKGRFAFSLETSASTANLQINNLKSEDTATYFCARFGSAVDYWGQGTSVTVSS VL: DIVMTQAAFSNPVTLGTSGSISCRSSKSLLHSNGITYLYWYLQKPGQSPQLLIYQMSNLASGVPDRFSSSGSGTDFTLRISRVEAEDVGVYYCAQNLERPRTFGGGTKLEMKR	–	0.04 fold
ING-1 light chain L99S (Fab, V domains shown, Fab, periplasmic extract) VH: QIQLVQSGPELKKPGETVKISCKASGYTFTKYGMNWVKQAPGKGLKWMGWINTYTEEPTYGDDFKGRFAFSLETSASTANLQINNLKSEDTATYFCARFGSAVDYWGQGTSVTVSS VL: DIVMTQAAFSNPVTLGTSGSISCRSSKSLLHSNGITYLYWYLQKPGQSPQLLIYQMSNLASGVPDRFSSSGSGTDFTLRISRVEAEDVGVYYCAQNLESPRTFGGGTKLEMKR	–	0.04 fold
ING-1 light chain L99Y (Fab, V domains shown, Fab, periplasmic extract) VH: QIQLVQSGPELKKPGETVKISCKASGYTFTKYGMNWVKQAPGKGLKWMGWINTYTEEPTYGDDFKGRFAFSLETSASTANLQINNLKSEDTATYFCARFGSAVDYWGQGTSVTVSS VL: DIVMTQAAFSNPVTLGTSGSISCRSSKSLLHSNGITYLYWYLQKPGQSPQLLIYQMSNLASGVPDRFSSSGSGTDFTLRISRVEAEDVGVYYCAQNLEYPRTFGGGTKLEMKR	–	1 fold
ING-1 light chain N33K (Fab, V domains shown, Fab, periplasmic extract) VH: QIQLVQSGPELKKPGETVKISCKASGYTFTKYGMNWVKQAPGKGLKWMGWINTYTEEPTYGDDFKGRFAFSLETSASTANLQINNLKSEDTATYFCARFGSAVDYWGQGTSVTVSS VL: DIVMTQAAFSNPVTLGTSGSISCRSSKSLLHSKGITYLYWYLQKPGQSPQLLIYQMSNLASGVPDRFSSSGSGTDFTLRISRVEAEDVGVYYCAQNLELPRTFGGGTKLEMKR	–	0.7 fold
ING-1 light chain N33Y (Fab, V domains shown, Fab, periplasmic extract) VH: QIQLVQSGPELKKPGETVKISCKASGYTFTKYGMNWVKQAPGKGLKWMGWINTYTEEPTYGDDFKGRFAFSLETSASTANLQINNLKSEDTATYFCARFGSAVDYWGQGTSVTVSS VL: DIVMTQAAFSNPVTLGTSGSISCRSSKSLLHSYGITYLYWYLQKPGQSPQLLIYQMSNLASGVPDRFSSSGSGTDFTLRISRVEAEDVGVYYCAQNLELPRTFGGGTKLEMKR	–	0.8 fold
ING-1 light chain P100D (Fab, V domains shown, Fab, periplasmic extract) VH: QIQLVQSGPELKKPGETVKISCKASGYTFTKYGMNWVKQAPGKGLKWMGWINTYTEEPTYGDDFKGRFAFSLETSASTANLQINNLKSEDTATYFCARFGSAVDYWGQGTSVTVSS VL: DIVMTQAAFSNPVTLGTSGSISCRSSKSLLHSNGITYLYWYLQKPGQSPQLLIYQMSNLASGVPDRFSSSGSGTDFTLRISRVEAEDVGVYYCAQNLELDRTFGGGTKLEMKR	–	0.02 fold
ING-1 light chain P100E (Fab, V domains shown, Fab, periplasmic extract) VH: QIQLVQSGPELKKPGETVKISCKASGYTFTKYGMNWVKQAPGKGLKWMGWINTYTEEPTYGDDFKGRFAFSLETSASTANLQINNLKSEDTATYFCARFGSAVDYWGQGTSVTVSS VL: DIVMTQAAFSNPVTLGTSGSISCRSSKSLLHSNGITYLYWYLQKPGQSPQLLIYQMSNLASGVPDRFSSSGSGTDFTLRISRVEAEDVGVYYCAQNLELERTFGGGTKLEMKR	–	0.06 fold

From patent US20110118131A1 (published 2011)
